According to publication PMC5875850, “Insights into DNA substrate selection by APOBEC3G from structural, biochemical, and functional studies”:

Assays:
[1] = molecular target: A3GCTD WT (A3G191-384-2K3A) (Homo sapiens, UniProt Q9HC16 191-384, L234K;C243A;F310K;C321A;C356A); experiment: single-turnover deamination kinetics (kobs vs [E], hyperbolic fit); Kinetic Kd: 20 mM Tris pH 8.0, 1 mM DTT, 37 C, 1-50 uM enzyme, 40 nM DNA; SEC/complex: 50 mM Tris pH 7.0, 100 mM NaCl, 0.1 mM TCEP (stated for the Pot1-A3GCTD gel filtration); crystals 20 C, 100 mM HEPES pH 7, 200 mM LiCl, 20% PEG 6000; details: protein: recombinant; tags: His6-MBP tag removed by SARS-CoV Mpro; label: 5' 32P; single strand
[2] = molecular target: Pot1-A3GCTD fusion (Pot1A3GCTD) (Schizosaccharomyces pombe (Pot1) / Homo …, UniProt O13988 1-185+Q9HC16:195-384, L234K;C243A;F310K;C321A;C356A;internal_change); experiment: size exclusion chromatography; Kinetic Kd: 20 mM Tris pH 8.0, 1 mM DTT, 37 C, 1-50 uM enzyme, 40 nM DNA; SEC/complex: 50 mM Tris pH 7.0, 100 mM NaCl, 0.1 mM TCEP (stated for the Pot1-A3GCTD gel filtration); crystals 20 C, 100 mM HEPES pH 7, 200 mM LiCl, 20% PEG 6000; details: protein: recombinant; tags: His6-Staph nuclease tag removed by SARS-CoV Mpro; single strand
Pot1-A3GCTD fusion (Pot1A3GCTD), sequence (O13988 other isoform, or with tags, fused parts or gaps L234K;C243A;F310K;C321A;C356A;): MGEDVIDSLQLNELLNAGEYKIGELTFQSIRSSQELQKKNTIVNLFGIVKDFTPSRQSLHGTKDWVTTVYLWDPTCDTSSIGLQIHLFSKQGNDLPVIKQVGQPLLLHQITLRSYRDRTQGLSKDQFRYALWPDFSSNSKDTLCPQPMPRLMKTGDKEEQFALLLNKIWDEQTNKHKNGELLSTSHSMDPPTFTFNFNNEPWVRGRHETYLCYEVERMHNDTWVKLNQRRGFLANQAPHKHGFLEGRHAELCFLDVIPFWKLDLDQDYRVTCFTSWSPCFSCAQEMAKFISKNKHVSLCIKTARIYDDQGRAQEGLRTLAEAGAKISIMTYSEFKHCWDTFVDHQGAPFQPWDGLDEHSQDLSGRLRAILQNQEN

A3GCTD WT (A3G191-384-2K3A), sequence (Q9HC16 191-384 L234K/C243A/F310K/C321A/C356A, one chain of several): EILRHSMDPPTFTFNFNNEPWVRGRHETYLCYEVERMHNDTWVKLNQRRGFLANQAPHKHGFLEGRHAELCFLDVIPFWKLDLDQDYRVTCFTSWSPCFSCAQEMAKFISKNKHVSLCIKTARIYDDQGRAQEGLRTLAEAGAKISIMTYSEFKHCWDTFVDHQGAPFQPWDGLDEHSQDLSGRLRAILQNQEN

Binder	Kd [1] [µM]	binding result [2]
TAGAAAGGGAGACCCAAAGAGGAAAGGTGA (ssDNA) [CCCA 30-mer]	26	
AGAAGACCCAAAGAAGAGGAAGCAGGTTAC (ssDNA) [30nt Pot1/A3G substrate (CCCA + GGTTAC)]		binds
